In patent EP4818200A1 (USWM CT, LLC, dated 2026):
Changes are numbered by the printed parent chain.

B1: TCR2 (TCR)
TCR alpha: MKNQVEQSPQSLIILEGKNCTLQCNYTVSPFSNLRWYKQDTGRGPVSLTIMTFSENTKSNGRYTATLDADTKQSSLHITASQLSDSASYICVVSGGTDSWGKLQF
TCR beta: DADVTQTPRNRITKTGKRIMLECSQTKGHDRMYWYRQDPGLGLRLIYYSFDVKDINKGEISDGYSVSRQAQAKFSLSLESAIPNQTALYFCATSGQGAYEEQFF
B2: TCR3 (TCR)
TCR alpha: B1 TCR alpha with M51V
TCR beta: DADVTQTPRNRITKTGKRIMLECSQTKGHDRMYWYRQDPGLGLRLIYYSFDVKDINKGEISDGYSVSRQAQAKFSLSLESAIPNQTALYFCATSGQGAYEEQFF
B3: TCR4 (TCR)
TCR alpha: B1 TCR alpha with M51L
TCR beta: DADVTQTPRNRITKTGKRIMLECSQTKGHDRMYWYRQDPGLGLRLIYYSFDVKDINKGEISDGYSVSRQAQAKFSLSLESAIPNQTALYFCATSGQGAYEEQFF

Experiments:
[1] = target: T1, … HLA-A*0201 complex (biotinylated soluble pHLA) (human, enzymatically biotinylated (BirA) on the C-terminal biotinylation tag); assay: SPR (BIAcore 3000), soluble TCR over immobilised biotinylated pHLA, 25 °C
T1 construct: also called MAGE-B2; not shown: C-terminal biotinylation tag

[2] = target: T2, … HLA-A*0201 complex (biotinylated soluble pHLA) (human, enzymatically biotinylated (BirA) on the C-terminal biotinylation tag); assay: as above
T2 construct: also called MAGE A4; not shown: C-terminal biotinylation tag

Binder	Kd [1]	Kd [2]
B1	198 µM	17.2 µM
B2	27.6 µM	2.6 µM
B3	52.6 µM	5.1 µM
